Measurements taken from IntAct's records for PubMed 23804756.

B1: MIF4G domain-containing protein (Homo sapiens), A9UHW6 (parent)
chain: MGEPSREEYKIQSFDAETQQLLKTALKDPGAVDLEKVANVIVDHSLQDCVFSKEAGRMCYAIIQAESKQAGQSVFRRGLLNRLQQEYQAREQLRARSLQGWVCYVTFICNIFDYLRVNNMPMMALVNPVYDCLFRLAQPDSLSKEEEVDCLVLQLHRVGEQLEKMNGQRMDELFVLIRDGFLLPTGLSSLAQLLLLEIIEFRAAGWKTTPAAHKYYYSEVSD

Variants of: B1
Conditions: with slbp_human SLBP
For MGEPSREEYKIQSFDAETQQLLKTALKDPGAVDLEKVANVIVDHSLQDCVFSKEAGRMCYAIIQAESKQAGQSVFRAGLLARLAQEYQAREQLRARSLQGWVCYVTFICNIFDYLRVNNMPMMALVNPVYDCLFRLAQPDSLSKEEEVDCLVLQLHRVGEQLEKMNGQRMDELFVLIRDGFLLPTGLSSLAQLLLLEIIEFRAAGWKTTPAAHKYYYSEVSD [R77A;N81A;Q84A], the “effect of a mutation on the interaction” value was “decreasing interaction strength”.
